Results reported in the RNAGym collection of RNA variant scans (doi:10.7554/elife.90254).

B1: OR4K15 (parent)
chain: GUUAACGGUCAUAGGCCAUGGAAACUAGGAGCACCAUUUCGCUGCCAGUGAAGAAAUGAACAAAGAAAAUCUGGGCCAGGCAGGCAUCAAAAGAAAUAGUCUUGCGCUCAACCAGAAAGUCUGUAAUCAUUUUAAGGGUA

Variants of: B1
Assay: self-cleavage, relative activity (ratio to wild type); higher = more cleavage; in vitro, sequencing; the parent is a self-cleaving ribozyme

Variant | self-cleavage
GUUAACGGUCAUAGGCCAUGGAAACUAGGAGCACCAUUUCGCUGCCAGUGAAGAUAUGAACAAAGAAAAUCUGGGCCAGGCAGGCAUCAAAAGAAAUGGUCUUGCGCUCAACCAGAAAGUCUGUAAUCAUUUUAAGGGUA [A55U A98G] | 0.19
GUUAACGGUCAUAGGCCAUGGAAGCUCGGAGCACCAUUUCGCUGCCAGUGAAGAAAUGAACAAAGAAAAUCUGGGCCAGGCAGGCAUCAAAAGAAAUAGUCUUGCGCUCAACCAGAAAGUCUGUAAUCAUUUUAAGGGUA [A24G A27C] | 0.55
GUUAACGGUCAUAGGCCAUGGAAACUAGGAGCACCAUUUCGCUGCCAGUGAAGAAAUGAACAAAGAAAAUCUGGGCCAGGCAGGCAUCAAAAGAACUAGUCUUGCGCUCAGCCAGAAAGUCUGUAAUCAUUUUAAGGGUA [A96C A111G] | 0.03
GUUAACGGUCAUAGGCCAUGGAGACUAGGAGCACCAUUUCGCUGCCAGUGAAGAAAUGAACAAAGAAAAUCUGGGCCAGGCAGGCAUCAAAAGAAAUAGUCUUGCGCUCAACCGGAAAGUCUGUAAUCAUUUUAAGGGUA [A23G A114G] | 0.54
GUUAACGGUCAUAGGCCAUGGAAACUUGGAGCACCAUUUCGCUGCCAGUGAAGAAAUGGACAAAGAAAAUCUGGGCCAGGCAGGCAUCAAAAGAAAUAGUCUUGCGCUCAACCAGAAAGUCUGUAAUCAUUUUAAGGGUA [A27U A59G] | 0.92
GUUAACGGUCAUAGGCCAUGGAAACUAGGAGCACCAUUUCGCUGCCAGUGAAGAAAUGAACAAAGAAGAUCUGGGCCAGGCAGGCAUCAAAAGAAAUAGUCUUGCGCUCAACCAGAAAGUCUGUAACCAUUUUAAGGGUA [A68G U127C] | 1.05
GUUAACGGUCAUAGGCCAUGGAAACUAGGAGCACCAUUUCGCUGCCAGUGAUGAAAUGAACAAAGAAAAUCUGGGCCAGGCAGGCGUCAAAAGAAAUAGUCUUGCGCUCAACCAGAAAGUCUGUAAUCAUUUUAAGGGUA [A52U A86G] | 1.61
GUUAACGGUCAUAGGCCAUGGAAACUAGGAGCACCAUCUCGCUGCCAGUGAAGAAAUGAACAAAGAAAAUCUGGGCCAGGCAGGCAUCAAAAGGAAUAGUCUUGCGCUCAACCAGAAAGUCUGUAAUCAUUUUAAGGGUA [U38C A94G] | 0.74
GUUAACGGUCAUAGGCCAUGGAAGCUAGGAGCACCAUUUCGCUGCCAGUGAAGAAAUGAACAAAGAAAAACUGGGCCAGGCAGGCAUCAAAAGAAAUAGUCUUGCGCUCAACCAGAAAGUCUGUAAUCAUUUUAAGGGUA [A24G U70A] | 1.17
GUUAACGGUCAUAGGCCAUGGAAACUAGGAGCACCAUUUCGCUGCCAGUGAAGAAAUGAACGAAGAAAAUCUGGUCCAGGCAGGCAUCAAAAGAAAUAGUCUUGCGCUCAACCAGAAAGUCUGUAAUCAUUUUAAGGGUA [A62G G75U] | 0.15
GUUAACGGUCAUAGGCCAUGGAAACUAGGAGCACCAUUUCGCUGCCAGUGAAGAAAUGAACAAAGAAGAUCUGGGCCAGGCAGGCAUCAAAAGAAAUAGUCUUGCGCUCAGCCAGAAAGUCUGUAAUCAUUUUAAGGGUA [A68G A111G] | 0.01
GUUAGCGGUCAUAGGCCAUGGAAACUAGGAGCACCAUUUCGCUGCCAGUGAAGAAAUGAACAAAGAAAAUCUGGGCCAGGCAGGCUUCAAAAGAAAUAGUCUUGCGCUCAACCAGAAAGUCUGUAAUCAUUUUAAGGGUA [A5G A86U] | 1.27
GUUAACGGUCAUAGGCCAUGGAAACUAGGAGCACCAUUUCGCUGCCAGUGAUGAAAUGAACAGAGAAAAUCUGGGCCAGGCAGGCAUCAAAAGAAAUAGUCUUGCGCUCAACCAGAAAGUCUGUAAUCAUUUUAAGGGUA [A52U A63G] | 1.73
GUUAACGGUCAUAGGCCAUGGAAACUAGGGACACCAUUUCGCUGCCAGUGAAGAAAUGAACAAAGAAAAUCUGGGCCAGGCAGGCAUCAAAAGAAAUAGUCUUGCGCUCAACCAGAAAGUCUGUAAUCAUUUUAAGGGUA [A30G G31A] | 1.61
GCUAACGGUCAUAGGCCAUGGAAACUAGGAGCACCAUUUCGCUGCCAGUGAAGAAAUGAACAAAGAAAAUCUGGGCCAGGCAGGCAUCAAAAGAAAUAGUCUUGCGCUCAACCAGAUAGUCUGUAAUCAUUUUAAGGGUA [U2C A117U] | 1.05
GUUAACGGUCAUAGGCCAUGGAAACUAGGAGCACCAUUUCGCUGCCAGUGAAGAAAUGAACAAAGAAAAUCUGGGCCAGGCAGGCAUCAAAAGAAAUAGUCUUGCGCUCAACCAGCGAGUCUGUAAUCAUUUUAAGGGUA [A116C A117G] | 0.04
GUUAACGGACAUAGGCCAUGGAAACUAGGAGCACCAUUUCGCUGCCAGUGAAGAAAUGAACAAAGAAAAUCUGGGCCAGGCAGGCAUCAAAAGAAGUAGUCUUGCGCUCAACCAGAAAGUCUGUAAUCAUUUUAAGGGUA [U9A A96G] | 1.16
GUUAACGGUCAUAGGCCAUGGAAACUAGGAGCACCAUUUUGCUGCCAGUGAAGAAAUGAACAAAGAAAAUCUGGGCCAGGCAGGCAUCAAAAGAAAUAGUCUUGCGCACAACCAGAAAGUCUGUAAUCAUUUUAAGGGUA [C40U U108A] | 0.01
GUUAACGGUCAUAGGCCAUGGAAACUAGGAGCACCAUGUCGCUGCCAGUGAAGAAAUGGACAAAGAAAAUCUGGGCCAGGCAGGCAUCAAAAGAAAUAGUCUUGCGCUCAACCAGAAAGUCUGUAAUCAUUUUAAGGGUA [U38G A59G] | 0.9
GUUAACGGUCAUAGGCUAUGGAAACUAGGAGCACCACUUCGCUGCCAGUGAAGAAAUGAACAAAGAAAAUCUGGGCCAGGCAGGCAUCAAAAGAAAUAGUCUUGCGCUCAACCAGAAAGUCUGUAAUCAUUUUAAGGGUA [C17U U37C] | 1
GUUAACGGUCAUAGGCCAUGGAAACUAGGAGCACCAUUUCGCUGCCAGUGAAGAAAUGAACAAAGAAAAUCUGGGCCAGGCAGGCGUCAAAAGAAAUAGUCUAGCGCUCAACCAGAAAGUCUGUAAUCAUUUUAAGGGUA [A86G U103A] | 0.93

Variant | self-cleavage
GUUAACGGUCAUAGGCCAUGGAAACUAGGAGCACCAUUUCGCUGCCAGUGAAGAAAUGAACAAAGAAAAUCUGAGCCAGGCAGGCAACAAAAGAAAUAGUCUUGCGCUCAACCAGAAAGUCUGUAAUCAUUUUAAGGGUA [G74A U87A] | 0.22
GUUAACGGUCAUAGGCCAUGGAAACUAGGAGCACCAUUUCGCUGCCAGUGAAGAAAUGGACAAAGAAAAUAUGGGCCAGGCAGGCAUCAAAAGAAAUAGUCUUGCGCUCAACCAGAAAGUCUGUAAUCAUUUUAAGGGUA [A59G C71A] | 0.48
GUUAACGGUCAUAGGCCAUGGAAACCAGGAGCACCAUUUCGCUGCCAGUGAAGAAAUGAACAAAGAAAAUCUGGGCCAGGCAGGCUUCAAAAGAAAUAGUCUUGCGCUCAACCAGAAAGUCUGUAAUCAUUUUAAGGGUA [U26C A86U] | 1.52
GUUAACGGUCAUAGGCCAUGGAAACUAGGAGCACCAUUUCGCUGCCAGUGAAGAAAUGAACAAAGAAAAUCUGGGCCAGGCAGGCAUCAAAAGAAAUAGUCUUGCGCUCAUCCAGAGAGUCUGUAAUCAUUUUAAGGGUA [A111U A117G] | 0.06
GUUAACGGUCAUAGGCCGUGGAAACUAGGAGCACCAUUUCGCUGCCAGUGAAGAAAUGAACAAAGAAAAUCUGGGCCAGGCAGGCAUCAAAAGAAAUAGUCUUGCGCUCGACCAGAAAGUCUGUAAUCAUUUUAAGGGUA [A18G A110G] | 0.21
GUUAACAGUCAUAGGCCAUGGAAACUAGGAGCACCAUUUCGCUGCCAGUGAAGAAAUGAACAAAGAAAAUCUGGGCCAGGCAGGCAUCAAAAGAAAUAGUCUUGCGCUCAACCAGAGAGUCUGUAAUCAUUUUAAGGGUA [G7A A117G] | 0.51
GUUAACGGUCAUAGGCCAUGGAAACUAGGAGCACCAUUACGCUGCCAGUGAAGAAAUGAACAAAGAAAAUCUGGGCCAGGCAGGCAUCAAAAGAAAUAGUCUUGCGCUCAACCAGAGAGUCUGUAAUCAUUUUAAGGGUA [U39A A117G] | 2.24
GUUAAUGGUCAUAGGCCAUGGAAACUAGGAGCACCAUUUCGCUGCCAGUGAGGAAAUGAACAAAGAAAAUCUGGGCCAGGCAGGCAUCAAAAGAAAUAGUCUUGCGCUCAACCAGAAAGUCUGUAAUCAUUUUAAGGGUA [C6U A52G] | 0.59
GUUAACGGUCAUAGGCCAUGUAAACUAGGAGCACCAAUUCGCUGCCAGUGAAGAAAUGAACAAAGAAAAUCUGGGCCAGGCAGGCAUCAAAAGAAAUAGUCUUGCGCUCAACCAGAAAGUCUGUAAUCAUUUUAAGGGUA [G21U U37A] | 1.06
GUUAACGGUCAUAGGUCAUGGAAACUAGGAGCACCAUUUCGCUGCCAGUGAAGAAAUGAACAAAGAAAACCUGGGCCAGGCAGGCAUCAAAAGAAAUAGUCUUGCGCUCAACCAGAAAGUCUGUAAUCAUUUUAAGGGUA [C16U U70C] | 0.79
GUUAACGGUCAUAGGCCAUGGAAACUAGGAGCACCGUUUCGCUGCCAGUGAAGAAAUGAACAAAGAAAAUCUGGGCCAGGCAGGCAUCAAAAGAAAUAGUCUUGCGCUCAACCAGAAAGUCUGUAACCAUUUUAAGGGUA [A36G U127C] | 1.34
GUUAACGGUCAUAGGCCAUGGAAACUAGGUGCACCAUUUCGCUGCCAGUGAGGAAAUGAACAAAGAAAAUCUGGGCCAGGCAGGCAUCAAAAGAAAUAGUCUUGCGCUCAACCAGAAAGUCUGUAAUCAUUUUAAGGGUA [A30U A52G] | 1.08
GUUAACGGUCAUAGGCCAUGGAAACUAGGAGCACCAUUUCGCUGGCAGUGAAGAAAUGAACAAAGAAAAUCUGGGCCAGGCAGGCAUCAAAAGAAAUAGUCCUGCGCUCAACCAGAAAGUCUGUAAUCAUUUUAAGGGUA [C45G U102C] | 1.48
AUUAACGGUCAUAGGCCAUGGAAACUAGGAGCACCACUUCGCUGCCAGUGAAGAAAUGAACAAAGAAAAUCUGGGCCAGGCAGGCAUCAAAAGAAAUAGUCUUGCGCUCAACCAGAAAGUCUGUAAUCAUUUUAAGGGUA [G1A U37C] | 1.61
GUUAACGGUCAUGGGCCAUGGAAACUAGGAGCACCAUUUCGCUGCCAGUGAAGAAAUGAACAAAGAAAAUCUGGGCCAGGCAGGCAUCAAAAGGAAUAGUCUUGCGCUCAACCAGAAAGUCUGUAAUCAUUUUAAGGGUA [A13G A94G] | 0.6
GUUAACGGUCAUAGGCCAUGGAAACUAGGAGCACCAUUUCGCUACCAGUGAAGAAAUGAACAAAGAAAAUCUGGGCCAGGCAGGCAUCAAAAGAAAUAGUCUUGCGCUCAACCAGAAAGUCUGCAAUCAUUUUAAGGGUA [G44A U124C] | 0.45
GUUAACGGUCAUAGGCCAUGGAAACUAGGAGCACCAUUUCGCUGCCAGUGAAGAAAUGAACAAAGAAAAUGUGGGCCAGGCAGGCAACAAAAGAAAUAGUCUUGCGCUCAACCAGAAAGUCUGUAAUCAUUUUAAGGGUA [C71G U87A] | 0.21
GUUAUCGGUCAUAGGCCAUGGAAACUAGGAGCACCAUUUCGCUGCCAGUGAAGAAAUGAACAAAGAAAAUCUGGGCCAGGCAGGCAUCAAAAGAAAUAGUCUUGCGCUCAACCAGAAAGUCUGUAAUCAUUUUAAGGGUA [A5U] | 1.1
GUUAACGGUCAUAGGCCAUGGAAACUAGGAGCACCAUUACGCUGCCAGUGAAGAAAUGAACAAAGAUAAUCUGGGCCAGGCAGGCAUCAAAAGAAAUAGUCUUGCGCUCAACCAGAAAGUCUGUAAUCAUUUUAAGGGUA [U39A A67U] | 2.37
GUUAACGGUCAUAGGCCAUGGAAACUAGGAGCACCAUUUCGCUGCCAGUGAAUAAAUGAACAAAGAAAAUCUGGGCCAGGCAGGCAUCAAAAGAAAUAGUCUUGCGCUCAGCCAGAAAGUCUGUAAUCAUUUUAAGGGUA [G53U A111G] | 0.04
